Entries after “also recorded” stand apart in the source; their conditions may differ.
Assays:
nondiabetic wounds = experiment: Splinted full thickness excisional wound model, nondiabetic (wildtype) mice; assay type: in vivo; settings: versus control hydrogel
Method: (§1) Diabetic, aged diabetic, and nondiabetic mice were purchased from JAX labs. Bilateral, symmetric full thickness wounds (which recapitulate complete skin tissue loss) were generated on the murine dorsum using a biopsy punch; wounds were treated with the disclosed therapeutic or the control vehicle.
(§2) NAMPT hydrogel was administered on wounds, control hydrogel served as control.

hair follicles = experiment: Hair growth after intradermal injection of NAMPT in the skin of mice; assay type: in vivo
Text: The mean number of hair follicles per field in the NAMiPT group is 33.93. The mean number of hair follicles per field in the control group is 27.47. The difference between the number of hair follicles per field between the NAMPT group and control group is statistically significant (p-value 0.0097 by unpaired t-test (GraphPad Prism 9).

diabetic wounds [1] = experiment: Splinted full thickness excisional wound model, diabetic db/db mice; assay type: in vivo
Method: as §1, §2

diabetic wounds [2] = experiment: Single-cell RNA sequencing of NAMPT treated versus control diabetic wounds; assay type: in vivo, mice
Text: Studies including single-cell RNA sequencing performed by the authors have elucidated the mechanism of action of the disclosed novel treatment on complete skin regeneration and prevention of scarring.
We performed gene ontology (GO) analysis on differentially expressed genes between the fibroblast clusters (clusters #0, #5, #10, and #12) to determine whether specific functions could be assigned to the different fibroblast subpopulations (FIG. 2A-E). […] Next, we performed gene ontology analysis on differentially expressed genes between NAMPT treated versus control Cluster #0 fibroblasts.
We utilized the CellChat package to infer cell-cell communication in NAMPT treated diabetic wounds versus control diabetic wounds.
Impaired cellular proliferation in diabetic wounds leads to delayed granulation tissue formation and delayed reepithelialization. We utilized the Tricycle package40 to determine the impact of NAMPT on cell cycle of diabetic wounds.

[3] = pseudotime lineage analysis, relative to control wounds

B1: NAMPT: Nicotinamide phosphoribosyltransferase protein, rate-limiting enzyme of the salvage NAD synthesis pathway; human sequence SEQ ID NO: 1; recombinant (protein, listed as Homo sapiens)
chain: MNPAAEAEFNILLATDSYKVTHYKQYPPNTSKVYSYFECREKKTENSKLRKVKYEETVFYGLQYILNKYLKGKVVTKEKIQEAKDVYKEHFQDDVFNEKGWNYILEKYDGHLPIEIKAVPEGFVIPRGNVLFTVENTDPECYWLTNWIETILVQSWYPITVATNSREQKKILAKYLLETSGNLDGLEYKLHDFGYRGVSSQETAGIGASAHLVNFKGTDTVAGLALIKKYYGTKDPVPGYSVPAAEHSTITAWGKDHEKDAFEHIVTQFSSVPVSVVSDSYDIYNACEKIWGEDLRHLIVSRSTQAPLIIRPDSGNPLDTVLKVLEILGKKFPVTENSKGYKLLPPYLRVIQGDGVDINTLQEIVEGMKQKMWSIENIAFGSGGGLLQKLTRDLLNCSFKCSYVVTNGLGINVFKDPVADPNKRSKKGRLSLHRTPAGNFVTLEEGKGDLEEYGQDLLHTVFKNGKVTKSYSFDEIRKNAQLNIELEAAHH
For B1, the skin regeneration (nondiabetic wounds) was “sufficient to regenerate all tissues of the skin”, the “mean number of hair follicles per field” value (hair follicles; 15 fields at 200× magnification, counted manually, unblinded) was 33.93 and the “Difference between means (B − A) ± SEM, hair follicles per field” value (hair follicles; NAMPT group minus control group, unpaired t test) was 6.467 ± 2.329. The “hair follicles, histological analysis versus control” value (hair follicles; NAMPT treated mice skin versus control) was “significant increase; also recorded: increased hair follicles”, the hair growth (hair follicles; intradermal injection every 48 hours, compared to control) was “promoted hair growth visibly by 10 and 14 days” and the skin regeneration (diabetic wounds [1]; diabetic wounds, versus control hydrogel) was “sufficient to regenerate all tissues of the skin”. For the same molecule, the “percentage of area staining positive for Keratin15” value (diabetic wounds [1]; immunohistochemistry, diabetic wounds vs control, n=3, p=0.0166) was “significantly increases”, the “percentage of area staining positive for b-catenin” value (diabetic wounds [1]; immunohistochemistry, diabetic wounds vs control, n=3, p=0.0332) was “significantly increases” and the Wnt-Fzd ligand-receptor interactions (diabetic wounds [2]; CellChat analysis) was “increased diversity, number, and strength”. For the same molecule, the “gene expression for collagens Col1a1, Col1a2, Col3a1, Col5a2, Col6a1” value (diabetic wounds [2]; Cluster #0 fibroblasts, treated vs control) was “significantly increased”, the “epidermal stem cell markers Krt5, Krt14, Krt15, Trp63, Itgb1, Itga6” value (diabetic wounds [2]; Cluster #1 undifferentiated epidermal cells, compared to controls) was “significantly higher” and the “KEGG oxidative phosphorylation, fatty acid metabolism, TCA cycle, mTOR signaling and pyruvate metabolism pathways” value (diabetic wounds [2]; KEGG pathway analysis) was “significantly enhances”. For the same molecule, the “proportion of cells in the S phase, G2/M phase, and M phase” value (diabetic wounds [2]; Tricycle cell cycle analysis, compared to controls) was “increases”, the Hgf signaling (diabetic wounds [2]; epidermal stem cell populations) was “promoted” and the “Krt79+ and Krt6a/Krt6b+ cells” value (diabetic wounds [2]; pseudotime lineage analysis, relative to control treated wounds) was “enriched”. For the same molecule, the “Krt77+ cells” value (diabetic wounds [2]; [3]) was “increased”, the “Pparg+/Fasn+ cells” value (diabetic wounds [2]; [3]) was “enriched” and the “immune pathways (MHC-II, CD6, ALCAM, VISTA, MHC-I, CD80)” value (diabetic wounds [2]; treated diabetic wounds) was “upregulated”. For the same molecule, the “pro-inflammatory pathways, including TNF and IL1” value (diabetic wounds [2]; treated diabetic wounds) was “activation”.

Reference: US20250249077A1, “NAMPT FOR WOUND-HEALING AND STIMULATING HAIR GROWTH AND/OR REGROWTH” (Innovative Surgical Regeneration Holdings, LLC, priority 2022, published 2025)
